Experimental data taken from patent publication US20220195037A1 (AstraZeneca / MedImmune, published 2022).

Molecular target: T1, Lectin-like oxidized low density lipoprotein receptor-1 (LOX1), expressed on cells (UniProt P78380 1-273, limits assumed)
T1 construct: whole, on cells; Also used as the target for the functional rows, where it is endogenous LOX1 on patient-derived pancreatic tumor cells, cancer cell lines and cardiomyocytes; also called LOX1-expressing cells; cells overexpressing LOX1
Test: Western blot of lysates of human aortic endothelial cells, membrane probed with LX5140110 at 1 µg/ml and anti-human-Fc-HRP
Description: Inhibition of LOX1 can reduce chemotherapy-induced cardiomyocyte damage. While the combination of chemotherapy and anti-CSC targeted therapies will likely be useful in the clinic, it is known that many chemotherapies have unintended harmful side effects in addition to anti-tumor activity. One such side effect is cardiac damage that can lead to cardiomyocyte death and heart failure. […] First, we examined the expression of LOX1 in response to doxorobucin treatment in human aortic endothelial cells (HAEC) and embryonic stem cell derived cardiomyocytes. Oxidized LDL (Ox-LDL) is a conventional ligand of LOX1 and was added as a control, since previous reports show an increase of LOX1 in response to Ox-LDL in rat cardiac muscle cells (Spallarossa et al., (2005)). Forty-thousand cells were plated in a 96-well plate and treated with media alone or media containing 5 μM doxorubicin for 24 hours. The cells were then scraped and lysed with 1× RIPA buffer containing protease inhibitors on ice for 1 h. Loading buffer was added to each sample followed by heating for 10 min at 90° C. Twelve microliters of sample was loaded per lane in a 4-12% bis-tris gradient gel. The gels were run for 40 min at 200V in MOPS buffer. The proteins were transferred onto a nitrocellulose membrane using iBlot. The membrane was blocked overnight with casein solution. […]

binding result: binds
B1: LX5140110 (antibody, V domains shown)
VH: QVQLVQSGAEVKKPGASVKVSCKVSGYTLTELSMHWVRQAPGKGLEWMGGFDPEDFKYHTHQKFQGRVTMTEDTSTDTAYMELSSLRSEDTAVYYCALVWGTQGKGVRGWDYYYGMDVWGQGTTVTVSS
VL: QSVVTQPPSVSGAPGQRVTISCTGSSSNIGAGYDVHWYQQLPGTAPKLLIYGNSNRPSGVPDRFSGSKSGTSASLAITGLQAEDEADYYCQSYDSSLSGWVFGGGTKLTVL
notes: Monoclonal antibody; It was detected with an anti-human-Fc antibody, and the controls were non-specific IgG1; also called LOX1-specific monoclonal antibody; LOX1 monoclonal antibody
